# Laboratory results published in the supplement of paper PMC11246515.
# ± gives the standard deviation of the averaged measurements.
# Experiment: total protein half-life in vivo (active degradation + dilution); higher = more stable protein
# [1] = E. coli NCM3722 delta-clpP delta-lon delta-hslV, growth: N-lim chemostat, doubling time 6 h
# [2] = E. coli NCM3722 delta-clpP, growth: N-lim chemostat, doubling time 6 h
# [3] = E. coli NCM3722 delta-hslV, growth: N-lim chemostat, doubling time 6 h
# [4] = E. coli NCM3722 delta-lon, growth: N-lim chemostat, doubling time 6 h
# [5] = E. coli NCM3722 delta-smpB, growth: N-lim chemostat, doubling time 6 h
# [6] = wild type E. coli NCM3722, growth: C-lim chemostat, doubling time 3 h
# [7] = wild type E. coli NCM3722, growth: C-lim chemostat, doubling time 6 h
# [8] = wild type E. coli NCM3722, growth: C-lim chemostat, doubling time 12 h
# [9] = wild type E. coli NCM3722, growth: N-lim chemostat, doubling time 6 h
# [10] = wild type E. coli NCM3722, growth: N-lim chemostat, doubling time 12 h
# [11] = wild type E. coli NCM3722, growth: P-lim chemostat, doubling time 6 h
# [12] = wild type E. coli NCM3722, growth: P-lim chemostat, doubling time 12 h
Sequence,total protein half-life in vivo [1] [h],total protein half-life in vivo [2] [h],total protein half-life in vivo [3] [h],total protein half-life in vivo [4] [h],total protein half-life in vivo [5] [h],total protein half-life in vivo [6] [h],total protein half-life in vivo [7] [h],total protein half-life in vivo [8] [h],total protein half-life in vivo [9] [h],total protein half-life in vivo [10] [h],total protein half-life in vivo [11] [h],total protein half-life in vivo [12] [h]
MSGTLLAFDFGTKSIGVAVGQRITGTARPLPAIKAQDGTPDWNIIERLLKEWQPDEIIVGLPLNMDGTEQPLTARARKFANRIHGRFGVEVKLHDERLSTVEARSGLFEQGGYRALNKGKVDSASAVIILESYFEQGY [P0A8I1],4.82 ± 0.066,4.88,3.57 ± 0.011,4.27 ± 0.32,3.5663 ± 0.00095,2.88 ± 0.18,5.4 ± 0.77,10.2 ± 0.33,3.8577 ± 0.0028,7.41 ± 2.2,4.95 ± 0.11,8.63 ± 2.5
MSGWPRIYYKLLNLPLSILVKSKSIPADPAPELGLDTSRPIMYVLPYNSKADLLTLRAQCLAHDLPDPLEPLEIDGTLLPRYVFIHGGPRVFTYYTPKEESIKLFHDYLDLHRSNPNLDVQMVPVSVMFGRAPGREKGEVNPPLRMLNGVQKFFAVLWLGRDSFVRFSPSVSLRRMADEHGTDKTIAQKLARVARMHFARQRLAAVGPRLPARQDLFNKLLASRAIAKAVEDEARSKKISHEKAQQNAIALMEEIAANFSYEMIRLTDRILGFTWNRLYQGINVHNAERVRQLAHDGHELVYVPCHRSHMDYLLLSYVLYHQGLVPPHIAAGINLNFWPAGPIFRRLGAFFIRRTFKGNKLYSTVFREYLGELFSRGYSVEYFVEGGRSRTGRLLDPKTGTLSMTIQAMLRGGTRPITLIPIYIGYEHVMEVGTYAKELRGATKEKESLPQMLRGLSKLRNLGQGYVNFGEPMPLMTYLNQHVPDWRESIDPIEAVRPAWLTPTVNNIAADLMVRINNAGAANAMNLCCTALLASRQRSLTREQLTEQLNCYLDLMRNVPYSTDSTVPSASASELIDHALQMNKFEVEKDTIGDIIILPREQAVLMTYYRNNIAHMLVLPSLMAAIVTQHRHISRDVLMEHVNVLYPMLKAELFLRWDRDELPDVIDALANEMQRQGLITLQDDELHINPAHSRTLQLLAAGARETLQRYAITFWLLSANPSINRGTLEKESRTVAQRLSVLHGINAPEFFDKAVFSSLVLTLRDEGYISDSGDAEPAETMKVYQLLAELITSDVRLTIESATQGEG [P0A7A7],,7.2 ± 0.25,6.63 ± 0.61,6.38 ± 0.65,6.36 ± 0.2,3.37 ± 0.17,6.4 ± 0.11,12.2 ± 1.3,6.249 ± 0.032,13.3 ± 0.35,6.79 ± 0.28,13.4 ± 1.5
MSHHHEGCCKHEGQPRHEGCCKGEKSEHEHCGHGHQHEHGQCCGGRHGRGGGRRQRFFGHGELRLVILDILSRDDSHGYELIKAIENLTQGNYTPSPGVIYPTLDFLQEQSLITIREEEGGKKQIALTEQGAQWLEENREQVEMIEERIKARCVGAALRQNPQMKRALDNFKAVLDLRVNQSDISDAQIKKIIAVIDRAAFDITQLD,4.91 ± 0.66,,3.22 ± 0.047,4.273 ± 0.011,3.33 ± 0.41,2.55 ± 0.029,4.67 ± 0.56,8.76 ± 2.2,3.65 ± 0.74,5.05 ± 0.53,4.8 ± 0.27,8.64 ± 0.59
MSHKPAHLLLVDDDPGLLKLLGLRLTSEGYSVVTAESGAEGLRVLNREKVDLVISDLRMDEMDGMQLFAEIQKVQPGMPVIILTAHGSIPDAVAATQQGVFSFLTKPVDKDALYQAIDDALEQSAPATDERWREAIVTRSPLMLRLLEQARLVAQSDVSVLINGQSGTGKEIFAQAIHNASPRNSKPFIAINCGALPEQLLESELFGHARGAFTGAVSNREGLFQAAEGGTLFLDEIGDMPAPLQVKLLRVLQERKVRPLGSNRDIDINVRIISATHRDLPKAMARGEFREDLYYRLNVVSLKIPALAERTEDIPLLANHLLRQAAERHKPFVRAFSTDAMKRLMTASWPGNVRQLVNVIEQCVALTSSPVISDALVEQALEGENTALPTFVEARNQFELNYLRKLLQITKGNVTHAARMAGRNRTEFYKLLSRHELDANDFKE [P0AFU4],6.81 ± 1.7,4.73 ± 0.42,4.48 ± 0.2,5 ± 0.17,4.45 ± 0.29,3.25 ± 0.19,5.86 ± 0.38,11 ± 2.4,4.26 ± 0.069,7.72 ± 0.09,5.4 ± 0.19,12 ± 0.29
MSHRRSTVKGSLSFANPTVRAWLFQILAVVAVVGIVGWLFHNTVTNLNNRGITSGFAFLDRGAGFGIVQHLIDYQQGDTYGRVFIVGLLNTLLVSALCIVFASVLGFFIGLARLSDNWLLRKLSTIYIEIFRNIPPLLQIFFWYFAVLRNLPGPRQAVSAFDLAFLSNRGLYIPSPQLGDGFIAFILAVVMAIVLSVGLFRFNKTYQIKTGQLRRTWPIAAVLIIGLPLLAQWLFGAALHWDVPALRGFNFRGGMVLIPELAALTLALSVYTSAFIAEIIRAGIQAVPYGQHEAARSLGLPNPVTLRQVIIPQALRVIIPPLTSQYLNIVKNSSLAAAIGYPDMVSLFAGTVLNQTGQAIETIAMTMSVYLIISLTISLLMNIYNRRIAIVER,,,3.79,,,,,,4.44 ± 0.14,6.58,,
MSHWATFKQTATNLWVTLRHDILALAVFLNGLLIFKTIYGMSVNLLDIFHIKAFSELDLSLLANAPLFMLGVFLVLNSIGLLFRAKLAWAISIILLLIALIYTLHFYPWLKFSIGFCIFTLVFLLILRKDFSHSSAAAGTIFAFISFTTLLFYSTYGALYLSEGFNPRIESLMTAFYFSIETMSTVGYGDIVPVSESARLFTISVIISGITVFATSMTSIFGPLIRGGFNKLVKGNNHTMHRKDHFIVCGHSILAINTILQLNQRGQNVTVISNLPEDDIKQLEQRLGDNADVIPGDSNDSSVLKKAGIDRCRAILALSDNDADNAFVVLSAKDMSSDVKTVLAVSDSKNLNKIKMVHPDIILSPQLFGSEILARVLNGEEINNDMLVSMLLNSGHGIFSDNDELETKADSKESAQK,5.54 ± 0.5,5.47,,5.25 ± 0.22,4.7 ± 0.18,2.43 ± 0.039,4.78 ± 0.82,7.86,4.54 ± 0.47,9.01 ± 0.45,,9.87 ± 0.24
MSHYHEQFLKQNPLAVLGVLRDLHKAAIPLRLSWNGGQLISKLLAITPDKLVLDFGSQAEDNIAVLKAQHITITAETQGAKVEFTVEQLQQSEYLQLPAFITVPPPTLWFVQRRRYFRISAPLHPPYFCQTKLADNSTLRFRLYDLSLGGMGALLETAKPAELQEGMRFAQIEVNMGQWGVFHFDAQLISISERKVIDGKNETITTPRLSFRFLNVSPTVERQLQRIIFSLEREAREKADKVRD,5.94 ± 0.77,,,,> 8,1.21 ± 0.24,1.87 ± 0.3,2.88 ± 0.52,,,,
